{
  "source": "patent US20240132603A1",
  "about": "(HARBOUR BIOMED US, published 2024)",
  "binders": {"B1": {"name": "PR005565 (antibody, human IgG1, kappa)", "heavy": "not shown", "light": "DIVMTQSPLSLPVTLGQPASISCRSSKSLLHSNAKIYLYWFQQRPGQSPRLLIYRMSNLASGVPDRFSGSGSGTDFTLKISRVEAEDVGVYYCMQHLEYPLTFGQGTKLEIKRTVAAPSVFIFPPSDEQLKSGTASVVCLLNNFYPREAKVQWKVDNALQSGNSQESVTEQDSKDSTYSLSSTLTLSKADYEKHKVYACEVTHQGLSSPVTKSFNRGEC", "notes": "IgG1 constant region; same VH/VL as PR004666"}},
  "key": {"TSPAN4-FLAG": {"biological_target": "T1, TSPAN4-FLAG (UniProt O14817 1-238, limits assumed)", "T1 construct": "whole, on cells; order of protein and tag unknown; also called HEK293-TSPAN4; not shown: FLAG tag", "T1 sequence (looked up)": "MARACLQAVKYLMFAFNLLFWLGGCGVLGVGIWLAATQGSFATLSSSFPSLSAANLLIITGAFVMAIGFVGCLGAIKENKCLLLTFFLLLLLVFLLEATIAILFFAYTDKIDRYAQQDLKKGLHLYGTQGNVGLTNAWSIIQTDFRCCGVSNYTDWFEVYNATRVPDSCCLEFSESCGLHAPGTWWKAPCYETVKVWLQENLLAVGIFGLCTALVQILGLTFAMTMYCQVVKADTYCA", "assay": "flow cytometry, HEK293-TSPAN4 cells"}, "MMP16": {"biological_target": "T2, MMP16 (UniProt P51512 120-607)", "T2 construct": "whole, on cells; also called HEK293-MMP16", "T2 sequence (P51512 120-607)": "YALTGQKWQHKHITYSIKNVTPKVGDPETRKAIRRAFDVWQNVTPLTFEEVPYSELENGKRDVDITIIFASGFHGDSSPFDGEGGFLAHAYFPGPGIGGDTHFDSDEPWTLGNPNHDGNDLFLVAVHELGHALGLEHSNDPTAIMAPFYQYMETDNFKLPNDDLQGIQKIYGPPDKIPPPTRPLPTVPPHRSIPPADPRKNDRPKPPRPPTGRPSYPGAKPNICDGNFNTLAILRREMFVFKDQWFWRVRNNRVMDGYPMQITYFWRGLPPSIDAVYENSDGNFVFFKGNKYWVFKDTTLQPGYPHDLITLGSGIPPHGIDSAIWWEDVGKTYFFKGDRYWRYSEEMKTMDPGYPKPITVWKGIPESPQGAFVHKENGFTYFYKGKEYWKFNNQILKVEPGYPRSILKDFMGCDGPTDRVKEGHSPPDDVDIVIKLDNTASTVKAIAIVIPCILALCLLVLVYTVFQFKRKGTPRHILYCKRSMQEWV", "assay": "flow cytometry, HEK293-MMP16 cells"}, "CD40LG": {"biological_target": "T3, CD40LG (UniProt P29965 1-261)", "T3 construct": "whole, on cells; also called HEK293-CD40LG", "T3 sequence (looked up)": "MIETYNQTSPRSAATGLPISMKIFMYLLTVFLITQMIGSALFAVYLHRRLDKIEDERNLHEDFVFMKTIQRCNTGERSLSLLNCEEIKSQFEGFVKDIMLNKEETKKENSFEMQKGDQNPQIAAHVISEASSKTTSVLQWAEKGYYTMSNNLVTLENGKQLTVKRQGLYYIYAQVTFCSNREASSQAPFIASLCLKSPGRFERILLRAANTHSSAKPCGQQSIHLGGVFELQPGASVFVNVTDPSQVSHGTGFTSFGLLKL", "assay": "flow cytometry, HEK293-CD40LG cells"}, "human CCR8 [1]": {"biological_target": "T4, human CCR8 (human, UniProt P51685 1-355)", "T4 construct": "whole, on cells; construct used for the overexpressing cell lines is not described; also called hCCR8", "T4 sequence (P51685 whole entry)": "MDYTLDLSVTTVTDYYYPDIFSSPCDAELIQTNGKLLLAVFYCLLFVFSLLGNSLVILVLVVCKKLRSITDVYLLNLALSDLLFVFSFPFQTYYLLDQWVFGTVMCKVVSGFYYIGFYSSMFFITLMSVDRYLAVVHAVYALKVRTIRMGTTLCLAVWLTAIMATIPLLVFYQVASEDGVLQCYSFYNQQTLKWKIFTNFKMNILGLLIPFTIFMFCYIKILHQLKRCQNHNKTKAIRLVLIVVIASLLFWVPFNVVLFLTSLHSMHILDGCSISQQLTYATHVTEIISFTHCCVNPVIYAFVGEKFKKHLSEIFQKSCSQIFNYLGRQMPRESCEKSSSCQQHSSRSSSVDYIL", "assay": "FACS, CHO-K1-hCCR8 cells", "summary_of_the_method": "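Binding was measured on intact cells by two-step staining at 4 °C. Test antibodies were applied from 200 nM in 5-fold steps for 1 h, and a secondary reagent at 1:1000 for 40 min, before analysis on a FACS instrument.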"}, "human CCR8 [2]": {"biological_target": "T4, human CCR8", "assay": "KinExA, cell line overexpressing human CCR8; human CCR8 cell line", "protocol": "To 200 mg of PMMA hard beads was added 30 μg of Goat Anti-Human IgG Fc antibody, and the mixture was supplemented with a coating solution to 1.0 mL, with a buffer composition of 1×PBS, pH7.4, to ensure that the beads were completely suspended in the solution. After being spun at room temperature for 2 h, the beads were either allowed to settle naturally or centrifuged briefly at low speed, and the supernatant was removed. 1 mL of blocking buffer (1×PBS, pH7.4, containing 10 mg/mL BSA) was added to ensure that the beads were resuspended in the blocking solution, and the beads were spun at room temperature for 1 h. An appropriate concentration of PR005565, PR006155 or PR006166 was used as the 100% signal value, and PBS blank was used as the background value. The net signal values were detected using 0.5 μg/mL Alexa Fluor® 647 Goat Anti-Human IgG. The cell line overexpressing human or monkey CCR8 was collected by centrifugation at 1500 g for 5 min, washed 2 times with 2 PBS and centrifuged at 350 g. The cells were collected in a 1.5 mL centrifuge tube. 10 mL of 0.2 nM PR005565, PR006155 or PR006166 solution was prepared. The total cells were supplemented with 0.2 nM PR005565, PR006155 or PR006166 solution to 0.82 mL, and diluted in a 2-fold gradient with 0.2 nM PR005565, PR006155 or PR006166 as a buffer. […]"}, "TSPAN12-FLAG": {"biological_target": "T5, TSPAN12-FLAG (UniProt O95859 1-305)", "T5 construct": "whole, on cells; order of protein and tag unknown; also called HEK293-TSPAN12; not shown: FLAG tag", "T5 sequence (looked up)": "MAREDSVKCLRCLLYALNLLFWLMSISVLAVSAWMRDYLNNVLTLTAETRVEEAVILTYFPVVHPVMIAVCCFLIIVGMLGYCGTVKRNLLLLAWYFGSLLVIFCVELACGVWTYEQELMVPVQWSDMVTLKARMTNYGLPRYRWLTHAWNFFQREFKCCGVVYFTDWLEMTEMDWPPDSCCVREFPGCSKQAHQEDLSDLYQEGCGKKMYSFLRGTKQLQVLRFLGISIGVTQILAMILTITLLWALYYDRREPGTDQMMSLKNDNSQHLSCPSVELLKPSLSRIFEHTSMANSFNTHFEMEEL", "assay": "flow cytometry, HEK293-TSPAN12 cells", "source_text": "After that, HEK293 cells were transfected with commercial MMP16 (protein information can be found under Uniprot P51512), CD40LG (protein information can be found under Uniprot P29965), CD147 (protein information can be found under Uniprot P35612), TSPAN4 (protein information can be found under Uniprot 014817), and TSPAN12 (protein information can be found under Uniprot 095859) plasmids for further verification of the binding of PR005565, PR006275 and PR006276 to these proteins. […] However, the binding values of PR005565, PR006275 and PR006276 to MMP16, CD40LG, CD147, TSPAN4 and TSPAN12 after transfection of HEK293 cells were all consistent with the signal values of HEK293 cells themselves. Thus, PR005565, PR006275 and PR006276 had no non-specific binding to MMP16, CD40LG, CD147, TSPAN4 and TSPAN12 proteins (see Table 50)."}},
  "data": [
    {"binder": "B1", "values": [
      {"measurement": "MFI", "setting": "TSPAN4-FLAG", "value": 207},
      {"measurement": "MFI", "setting": "MMP16", "value": 146},
      {"measurement": "MFI", "setting": "CD40LG", "value": 241},
      {"measurement": "EC50", "setting": "human CCR8 [1]", "value": 0.42, "unit": "nM"},
      {"measurement": "Kd", "setting": "human CCR8 [2]", "value": 0.13, "unit": "nM"},
      {"measurement": "MFI", "setting": "TSPAN12-FLAG", "value": 219}
    ]}
  ]
}
